Laboratory results from US20250325675A1, “APTAMER, CONJUGATE, COMPOSITION, METHOD FOR PREPARING SAME, AND USE THEREOF” (priority 2022, published 2025).
Non-standard residues stand in square brackets, D forms with d. Residues, ends and D or L forms follow the SMILES beside them. *: point of attachment. Dolaproine = CO[C@@H]([C@@H]1CCCN1)[C@@H](C)C(=O)O; Dil = CC[C@H](C)[C@H](NC)[C@@H](CC(=O)O)OC; {MMAE} = monomethyl auristatin E payload; X1 = C[C@@H](N*)[C@@H](O)c1ccccc1; {Cy5} = cyanine 5 fluorescent dye; NMeV = CN[C@H](C(=O)O)C(C)C

How the values were obtained:
A549 subcutaneous tumors = experiment: In vivo activity in A549 subcutaneous tumor model mice (Experimental Example 25); details: 5 mg/kg (MMAE equivalent 0.3 mg/kg) D8, D12, D15, D19; 0.6 mg/kg MMAE equivalent D46, D50, D54; at each period of time
Experimental: According to the method of Experimental Example 4, 30 mice inoculated with A549 subcutaneous tumors were obtained, and were further fed after injection.
Conjugate 20 and conjugate 39 were dissolved into conjugate solutions with a concentration of 1 mg/mL (based on aptamer) with serum-free DMEM medium. Comparative conjugate 43 was dissolved into a conjugate solution with a concentration of 0.8 mg/mL (based on aptamer). MMAE was dissolved into a solution with a concentration of 0.06 mg/mL with 10% DMSO+90% serum-free DMEM medium (volume ratio).
7 days after the inoculation of A549 human lung cancer cells, all mice were divided into groups (6 mice each group), and each mouse was administered. The day of administration was designated as D8. The mice were weighed before administration, and the administration volume was calculated according to mouse body weight.
Each group of mice was administered once on D8, D12, D15, and D19, four times in total. […]
Tumor volumes were measured on D1, D9, D16, D19, D22, D26, D30, D36, D40, D43, D47, D50, D54, and D57, wherein the blank control group was measured on D54, and then the experiment was terminated.
The long diameters and short diameters of the tumors were measured in vitro. The tumor volume was calculated according to the equation ½ (long diameter×short diameter^2).

[1] = test system: U118MG glioma subcutaneous tumor; experiment: In vivo distribution in U118MG cell subcutaneous tumor model mice (Experimental Example 4); design: species or system NOD-SCID mice
Experimental: U118MG human glioma cells in the logarithmic growth phase were selected and digested (0.25% pancreatic enzyme).
The mice were further fed for 20 days after injection.
The mice inoculated with U118MG above were randomly divided into 3 groups (4 mice per group). For the 4 mice per group, the administration volume was calculated according to 10 μL/g body weight, and AP1, AP2 and comparative AP11 were respectively administered to different groups of mice by tail vein injection and designated as test group 4A1, test group 4A2 and control group 4A3. Thus, the administration dosage of each mouse was 3 mg/kg (based on aptamer). Another mouse inoculated with U118MG above was administered with 1×DMEM medium by tail vein injection (the administration volume was 10 μL/g body weight), and designated as blank control group 4Y.

[2] = test system: U118MG subcutaneous tumor; experiment: In vivo distribution of conjugates with different modifications in U118MG subcutaneous tumor model mice (Experimental Example 6); design: species or system NOD-SCID mice; details: 3 mg/kg tail vein
Experimental: U118MG subcutaneous tumor model mice were prepared according to the method described in experimental Example 4.
9 mice were divided into 3 groups (3 mice per group). AP2, AP3 and comparative AP12 solutions were respectively administered to each mouse of each group by tail vein injection. […] The three groups of mice were respectively designated as test group 6A, test group 6B and test group 6C. […] On Day 10 after administration, one mouse of blank control group 6Y and one mouse of test group 6A was respectively euthanized and tumor tissues were taken for fluorescence imaging, and the results are shown in FIG. 5H. In FIGS. 5A-5H, Blank represents blank control group 6Y.

[3] = test system: U118MG in situ brain glioma; details: mouse, in vivo, 3 mg/kg
Experimental: (§1) U118MG human glioma cells in the logarithmic growth phase cultured as described in experimental Example 4 were selected and digested with 0.25% pancreatic enzyme. The cells were collected, the supernatant was aspirated, and then the cells were resuspended in DMEM medium supplemented with 10% FBS to be formulated into a cell culture solution with a cell density of 4×10^7 cells/mL.
(§2) Experimental animals were 16 NOD-SCID mice (male, 12 weeks old, purchased from SPF (Beijing) Biotechnology Co., LTD.). […]
(§3) AP1, AP2 and comparative AP11 were respectively dissolved into conjugate solutions with a concentration of 0.3 mg/mL (based on aptamer) with 1×DMEM medium. […] The administration dosage for all animals was calculated according to body weight, the administration volume was all 10 μL/g, and the administration dosage was 3 mg/kg per animal (based on the amount of aptamer). […]
(§4) At 24 h after administration, one mouse in each group was respectively euthanized and brain tissue was taken, and the remaining mice were euthanized at 48 h after administration and brain tissues were taken. The brain tissues of mice were taken for fluorescence imaging in IVIS Lumina Series III.

[4] = test system: U118MG glioma subcutaneous tumor; experiment: In vivo anti-tumor activity in U118MG subcutaneous tumor mice (Experimental Example 11); design: species or system NOD-SCID mice
Experimental: The mice in this experiment were purchased from SPF Co., LTD: the germline was NOD-SCID, the grade was SPF, male, 6-8 weeks old; U118MG neuroglioma cells were purchased from Jennio.
The conjugate AP2 above was formulated into a 1.94 mg/mL solution with PBS. Conjugate 20 was respectively formulated into 0.625 mg/mL, 1.25 mg/mL and 2.06 mg/mL solutions with PBS (all calculated based on the amount of aptamer). MMAE (purchased from Shanghai Macklin Inc., Lot No. C12886583) was dissolved into a 0.038 mg/mL solution with a mixed solution of 10% DMSO+90% PBS (volume ratio).
The day of inoculation is designated as D1, and administration is performed once on D8, D12, D16 and D20.
36 mice were randomly divided into the following 6 groups (6 mice per group):
For blank control group 1, PBS was administered by tail vein injection with a single administration volume of 10 μL/g. […]
The long diameters and short diameters of the tumors were measured in vitro. The tumor volume was calculated according to the equation ½ (long diameter×short diameter^2). Prior to the first administration on D8, the tumor volumes in each group were measured and the average tumor volumes were recorded; the tumor volumes in each group were measured and recorded from D16 (twice a week).

[5] = test system: U118MG in situ brain glioma; experiment: In vivo distribution in U118MG cell tumor in situ model mice (Experimental Example 5); details: control groups 5C (intrathecal 100 μg) and 5F (tail vein 3 mg/kg); 24 h and 48 h
Experimental: as §1, §2, §3, §4

[6] = test system: U118MG subcutaneous tumor; experiment: Long-interval administration in U118MG subcutaneous tumor model mice (Experimental Example 23); format: in vivo; details: 0.1 or 0.3 mg/kg subcutaneous on D8, D11, D15, D29, D32, D36
Experimental: According to the method of Experimental Example 4, 42 mice inoculated with U118MG subcutaneous tumor were obtained, and were further fed after injection.
MMAE was dissolved into solutions with concentrations of 0.03 mg/mL and 0.01 mg/mL with 10% DMSO+90% serum-free DMEM medium (volume ratio). Conjugate 39 was dissolved into solutions with concentrations of 0.5 mg/mL and 0.165 mg/mL (based on aptamer). Comparative conjugate 44 was dissolved into solutions with concentrations of 0.5 mg/mL and 0.165 mg/mL (based on aptamer).
7 days after inoculation of U118MG cells, all mice were randomly divided into seven groups (6 mice per group), and each group of mice was administered. […] The mice were weighed before administration and the administration volume was calculated according to weight. […]
The tumor volumes were measured on D1, D9, D16, D19, D21, D24, D26, D29, D32, D36, D39, D43, D47, D53, D57, D60, D64, D67, D71, D74, D78, D81, D84, D88, D92, D95, and D99, wherein the blank control group was measured on D53, and test groups 7a, 7b and control group 7c were measured on D60, and then the experiment was terminated.
The long diameters and short diameters of the tumors were measured in vitro. The tumor volume was calculated according to the equation ½ (long diameter×short diameter^2). After the experiment was terminated, the tumor tissues were taken and weighed, and the average value was calculated.

MMAE-CmUmGmGmAmGmUmUmCmAmGmAmCmGmUmUmGmUmGmCmUmCmUmUm (CUGGAGUUCAGACGUUGUGCUCUU; all 2'-O-methyl, 5' {MMAE}, backbone not given here) [conjugate 39]
tumor volume versus control groups 25b (MMAE) and 25e (comparative conjugate 43) (A549 subcutaneous tumors): smaller than those of control groups 25b and 25e

MMAE-CmUmGmGmAmGmUmUmCmAmGmAmCmGmUmGmUmUmGmCmUmCmUmUmCmCmGmAmUmCmUmCm (CUGGAGUUCAGACGUGUUGCUCUUCCGAUCUC; all 2'-O-methyl, 5' {MMAE}, backbone not given here) [conjugate 20]
tumor volume versus control groups 25b (MMAE) and 25e (comparative conjugate 43) (A549 subcutaneous tumors): smaller than those of control groups 25b and 25e

CY5-CmUmGmGmAmGmUmUmCmAmGmAmCmGmUmGmUmUmGmCmUmCmUmUmCmCmGmAmUmCmUmCm [AP2]
fluorescence signal in mice / at site of tumor inoculation ([1]; mouse, in vivo): strong fluorescence signal at the sites of tumor inoculation
fluorescence intensity in vivo / tumor ([2]; 4 h to 24 h after administration): still show high fluorescence intensity
fluorescent signal in vivo / tumor ([2]; 48 h to Day 10 after administration): still show strong fluorescent signal
fluorescence signal at brain glioma [3]: obvious fluorescence signals at both 24 and 48 h
tumor volume over time ([4]; control group 2: 15.5 mg/kg tail vein on D8, D12, D16, D20): increased rapidly

CY5-UfCfUfAUfGGCfUfGCfCfGAUfCfUfGGUfCfUfCfCfAUfGUfACfGUf (UCUAUGGCUGCCGAUCUGGUCUCCAUGUACGU; 2'-fluoro at CU, RNA at AG, 5' {Cy5}, backbone not given here) [comparative AP11, reference compound]
fluorescence signal at the tumor site, brain tissue [5]: no obvious fluorescence signal at the tumor site
fluorescence signal in mice / at site of tumor inoculation ([1]; 3 mg/kg tail vein injection, 1 h, 4 h, 24 h, 48 h after administration): substantially no or weak fluorescence signal

CC[C@H](C)[C@@H]([C@@H](CC(=O)N1CCC[C@H]1[C@H](OC)[C@@H](C)C(=O)N[C@H](C)[C@@H](O)c1ccccc1)OC)N(C)C(=O)[C@@H](NC(=O)[C@@H](NC)C(C)C)C(C)C [MMAE, Monomethylauristatin E, reference compound] (H-[NMeV]V[Dil][Dolaproine]-X1)
growth rate of tumor volume [6]: growth rate of tumor volume was reduced
growth rate of tumor volume ([4]; control group 3: 0.3 mg/kg tail vein on D8, D12, D16, D20): growth rate of the tumor volume was reduced
